From publication PMC9700324, “Selection-free endogenous tagging of cell lines by bicistronic co-expression of the surface antigen NGFR” (MethodsX, 2022)

T1: nLAP-tagged WDR59 (WD Repeat Domain 59), endogenously tagged (human (endogenous in HEK293T), UniProt Q6PJI9 1-974)
T1 construct: WDR59 (WD Repeat Domain 59), subunit of GATOR2, human; NGFRETD is split off at the P2A site and is not part of this chain; The tag was inserted in the 5'UTR (donor NGFR "-2"); they are printed only as DNA; also called WDR59-GFP; nLAP-WDR59; source: endogenously tagged allele in HEK (Lenti-X 293T) spCas9+ cells, WDR59-NGFRETD-nLAP clone D5, in lysate; not shown: EGFP, N-terminal, kept
T1 sequence (looked up): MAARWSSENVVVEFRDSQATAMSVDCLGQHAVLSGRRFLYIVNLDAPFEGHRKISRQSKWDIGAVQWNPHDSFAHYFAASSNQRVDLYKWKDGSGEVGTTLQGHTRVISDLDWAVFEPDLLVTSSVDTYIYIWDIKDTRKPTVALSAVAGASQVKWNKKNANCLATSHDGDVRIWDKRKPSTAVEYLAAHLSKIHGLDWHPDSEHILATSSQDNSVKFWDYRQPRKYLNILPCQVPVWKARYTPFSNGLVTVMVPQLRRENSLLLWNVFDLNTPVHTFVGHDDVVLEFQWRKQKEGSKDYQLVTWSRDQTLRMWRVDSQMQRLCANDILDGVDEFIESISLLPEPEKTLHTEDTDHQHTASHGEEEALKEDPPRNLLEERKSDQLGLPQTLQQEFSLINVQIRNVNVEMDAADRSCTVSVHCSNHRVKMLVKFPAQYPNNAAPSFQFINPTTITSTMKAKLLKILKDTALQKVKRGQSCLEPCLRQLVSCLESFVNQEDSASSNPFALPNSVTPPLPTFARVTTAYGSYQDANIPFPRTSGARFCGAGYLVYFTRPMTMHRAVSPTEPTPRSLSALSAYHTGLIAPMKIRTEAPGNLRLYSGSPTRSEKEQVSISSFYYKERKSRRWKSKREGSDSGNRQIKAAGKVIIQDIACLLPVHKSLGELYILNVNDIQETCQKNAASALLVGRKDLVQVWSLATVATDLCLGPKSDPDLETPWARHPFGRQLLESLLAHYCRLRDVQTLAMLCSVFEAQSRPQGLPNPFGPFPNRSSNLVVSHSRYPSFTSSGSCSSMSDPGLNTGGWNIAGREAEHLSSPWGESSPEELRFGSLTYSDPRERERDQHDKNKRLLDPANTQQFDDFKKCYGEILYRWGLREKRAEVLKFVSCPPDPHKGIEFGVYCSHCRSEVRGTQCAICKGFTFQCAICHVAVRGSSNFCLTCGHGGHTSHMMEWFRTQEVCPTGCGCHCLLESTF

T2: nLAP-tagged WDR59 (WD Repeat Domain 59), endogenously tagged (human (endogenous in HEK293T)), Q6PJI9
T2 chain: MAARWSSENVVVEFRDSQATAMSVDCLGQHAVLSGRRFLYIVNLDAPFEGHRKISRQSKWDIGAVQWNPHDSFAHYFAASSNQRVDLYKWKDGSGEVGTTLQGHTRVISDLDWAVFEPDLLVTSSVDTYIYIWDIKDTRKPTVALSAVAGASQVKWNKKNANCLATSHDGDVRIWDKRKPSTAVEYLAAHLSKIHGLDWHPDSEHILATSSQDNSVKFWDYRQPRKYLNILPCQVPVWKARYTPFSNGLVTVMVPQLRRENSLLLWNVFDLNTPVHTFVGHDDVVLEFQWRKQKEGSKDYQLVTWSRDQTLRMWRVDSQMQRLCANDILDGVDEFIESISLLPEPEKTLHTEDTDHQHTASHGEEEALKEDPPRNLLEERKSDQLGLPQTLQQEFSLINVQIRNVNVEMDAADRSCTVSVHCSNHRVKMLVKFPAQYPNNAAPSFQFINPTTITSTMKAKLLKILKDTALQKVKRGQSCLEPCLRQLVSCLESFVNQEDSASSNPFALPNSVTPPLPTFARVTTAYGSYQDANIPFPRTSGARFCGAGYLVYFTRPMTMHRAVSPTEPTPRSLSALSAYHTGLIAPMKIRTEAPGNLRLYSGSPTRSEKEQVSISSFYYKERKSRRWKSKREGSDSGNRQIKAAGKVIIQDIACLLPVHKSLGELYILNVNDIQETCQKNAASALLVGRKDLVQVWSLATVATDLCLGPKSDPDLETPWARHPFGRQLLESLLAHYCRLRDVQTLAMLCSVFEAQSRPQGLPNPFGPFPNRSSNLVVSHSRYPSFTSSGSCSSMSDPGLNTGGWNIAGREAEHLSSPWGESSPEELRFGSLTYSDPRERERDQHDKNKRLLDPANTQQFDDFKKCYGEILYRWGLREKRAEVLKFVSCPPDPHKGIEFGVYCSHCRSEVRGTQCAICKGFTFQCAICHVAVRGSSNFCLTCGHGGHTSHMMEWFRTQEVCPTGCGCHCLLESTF


Columns and labels:
[1] = target: T1, nLAP-tagged WDR59 (WD Repeat Domain …); assay: co-IP; nLAP-tagged WDR59 precipitated from 1,000-3,000 µg lysate protein with GFP-Trap magnetic agarose beads (GFP-specific nanobodies) overnight at 4°C; CoIP buffer (10 mM Tris-HCl pH 8, 150 mM NaCl, 5 mM EDTA, 0.5% Triton X-100, 60 mM octyl-β-D-glucopyranoside); 5 washes; partners detected by Western blot; cells untreated, amino acid-starved 16 h with or without 60 min stimulation with all amino acids or leucine, …; conditions: partners not purified
[2] = target: T2, nLAP-tagged WDR59 (WD Repeat Domain …); assay: as above; conditions: remark: other sources report otherwise

| Binder | co-IP signal after leucine restimulation, fold of the leucine-starved sample [1] | co-IP signal after restimulation with all amino acids, percent of the amino acid-starved sample (normalised to WDR59-GFP) [1] | co-IP signal after leucine restimulation, fold of the leucine-starved sample [2] | co-IP signal after restimulation with all amino acids, fold of the amino acid-starved sample (normalised to WDR59-GFP) [2] | co-IP signal after restimulation with leucine alone, fold of the amino acid-starved sample (normalised to WDR59-GFP) [2] |
| --- | --- | --- | --- | --- | --- |
| MIOS (Meiosis Regulator For Oocyte Development) (natural protein, human (endogenous in HEK293T), UniProt Q9NXC5 1-875, looked up, MIOS (Meiosis Regulator For Oocyte Development), subunit of GATOR2, human, endogenous; also called GATOR2 subunit MIOS; source: endogenous, HEK (Lenti-X 293T) spCas9+ WDR59-NGFRETD-nLAP clone D5 lysate) MSGTKPDILWAPHHVDRFVVCDSELSLYHVESTVNSELKAGSLRLSEDSAATLLSINSDTPYMKCVAWYLNYDPECLLAVGQANGRVVLTSLGQDHNSKFKDLIGKEFVPKHARQCNTLAWNPLDSNWLAAGLDKHRADFSVLIWDICSKYTPDIVPMEKVKLSAGETETTLLVTKPLYELGQNDACLSLCWLPRDQKLLLAGMHRNLAIFDLRNTSQKMFVNTKAVQGVTVDPYFHDRVASFYEGQVAIWDLRKFEKPVLTLTEQPKPLTKVAWCPTRTGLLATLTRDSNIIRLYDMQHTPTPIGDETEPTIIERSVQPCDNYIASFAWHPTSQNRMIVVTPNRTMSDFTVFERISLAWSPITSLMWACGRHLYECTEEENDNSLEKDIATKMRLRALSRYGLDTEQVWRNHILAGNEDPQLKSLWYTLHFMKQYTEDMDQKSPGNKGSLVYAGIKSIVKSSLGMVESSRHNWSGLDKQSDIQNLNEERILALQLCGWIKKGTDVDVGPFLNSLVQEGEWERAAAVALFNLDIRRAIQILNEGASSEKGDLNLNVVAMALSGYTDEKNSLWREMCSTLRLQLNNPYLCVMFAFLTSETGSYDGVLYENKVAVRDRVAFACKFLSDTQLNRYIEKLTNEMKEAGNLEGILLTGLTKDGVDLMESYVDRTGDVQTASYCMLQGSPLDVLKDERVQYWIENYRNLLDAWRFWHKRAEFDIHRSKLDPSSKPLAQVFVSCNFCGKSISYSCSAVPHQGRGFSQYGVSGSPTKSKVTSCPGCRKPLPRCALCLINMGTPVSSCPGGTKSDEKVDLSKDKKLAQFNNWFTWCHNCRHGGHAGHMLSWFRDHAECPVSACTCKCMQLDTTGNLVPAETVQP | ~2 fold | 85% | – | – | – |
| NPRL3 (Nitrogen Permease Regulator 3-Like Protein), Q12980 1-569 (natural protein) MRDNTSPISVILVSSGSRGNKLLFRYPFQRSQEHPASQTSKPRSRYAASNTGDHADEQDGDSRFSDVILATILATKSEMCGQKFELKIDNVRFVGHPTLLQHALGQISKTDPSPKREAPTMILFNVVFALRANADPSVINCLHNLSRRIATVLQHEERRCQYLTREAKLILALQDEVSAMADGNEGPQSPFHHILPKCKLARDLKEAYDSLCTSGVVRLHINSWLEVSFCLPHKIHYAASSLIPPEAIERSLKAIRPYHALLLLSDEKSLLGELPIDCSPALVRVIKTTSAVKNLQQLAQDADLALLQVFQLAAHLVYWGKAIIIYPLCENNVYMLSPNASVCLYSPLAEQFSHQFPSHDLPSVLAKFSLPVSLSEFRNPLAPAVQETQLIQMVVWMLQRRLLIQLHTYVCLMASPSEEEPRPREDDVPFTARVGGRSLSTPNALSFGSPTSSDDMTLTSPSMDNSSAELLPSGDSPLNQRMTENLLASLSEHERAAILSVPAAQNPEDLRMFARLLHYFRGRHHLEEIMYNENTRRSQLLMLFDKFRSVLVVTTHEDPVIAVFQALLP | – | – | 2 fold | 1.2 fold | 1.89 fold |

The remaining lines, values ahead:

| co-IP signal after leucine restimulation, fold of the leucine-starved sample [1] | co-IP signal after restimulation with all amino acids, percent of the amino acid-starved sample (normalised to WDR59-GFP) [1] | co-IP signal after leucine restimulation, fold of the leucine-starved sample [2] | co-IP signal after restimulation with all amino acids, fold of the amino acid-starved sample (normalised to WDR59-GFP) [2] | co-IP signal after restimulation with leucine alone, fold of the amino acid-starved sample (normalised to WDR59-GFP) [2] | Binder |
| --- | --- | --- | --- | --- | --- |
| ~2 fold | 71% | – | – | – | WDR24 (WD Repeat Domain 24) (natural protein, human (endogenous in HEK293T), UniProt Q96S15 1-790, looked up, WDR24 (WD Repeat Domain 24), subunit of GATOR2, human, endogenous; also called GATOR2 subunit WDR24; source: endogenous, HEK (Lenti-X 293T) spCas9+ WDR59-NGFRETD-nLAP clone D5 lysate) MEKMSRVTTALGGSVLTGRTMHCHLDAPANAISVCRDAAQVVVAGRSIFKIYAIEEEQFVEKLNLRVGRKPSLNLSCADVVWHQMDENLLATAATNGVVVTWNLGRPSRNKQDQLFTEHKRTVNKVCFHPTEAHVLLSGSQDGFMKCFDLRRKDSVSTFSGQSESVRDVQFSIRDYFTFASTFENGNVQLWDIRRPDRCERMFTAHNGPVFCCDWHPEDRGWLATGGRDKMVKVWDMTTHRAKEMHCVQTIASVARVKWRPECRHHLATCSMMVDHNIYVWDVRRPFVPAAMFEEHRDVTTGIAWRHPHDPSFLLSGSKDSSLCQHLFRDASQPVERANPEGLCYGLFGDLAFAAKESLVAAESGRKPYTGDRRHPIFFKRKLDPAEPFAGLASSALSVFETEPGGGGMRWFVDTAERYALAGRPLAELCDHNAKVARELGRNQVAQTWTMLRIIYCSPGLVPTANLNHSVGKGGSCGLPLMNSFNLKDMAPGLGSETRLDRSKGDARSDTVLLDSSATLITNEDNEETEGSDVPADYLLGDVEGEEDELYLLDPEHAHPEDPECVLPQEAFPLRHEIVDTPPGPEHLQDKADSPHVSGSEADVASLAPVDSSFSLLSVSHALYDSRLPPDFFGVLVRDMLHFYAEQGDVQMAVSVLIVLGERVRKDIDEQTQEHWYTSYIDLLQRFRLWNVSNEVVKLSTSRAVSCLNQASTTLHVNCSHCKRPMSSRGWVCDRCHRCASMCAVCHHVVKGLFVWCQGCSHGGHLQHIMKWLEGSSHCPAGCGHLCEYS |
| ~2 fold | 82% | – | – | – | Sestrin-2 (SESN2) (natural protein, human (endogenous in HEK293T), UniProt P58004 1-480, looked up, Sestrin-2 (SESN2), leucine-sensing protein, human, endogenous; source: endogenous, HEK (Lenti-X 293T) spCas9+ WDR59-NGFRETD-nLAP clone D5 lysate) MIVADSECRAELKDYLRFAPGGVGDSGPGEEQRESRARRGPRGPSAFIPVEEVLREGAESLEQHLGLEALMSSGRVDNLAVVMGLHPDYFTSFWRLHYLLLHTDGPLASSWRHYIAIMAAARHQCSYLVGSHMAEFLQTGGDPEWLLGLHRAPEKLRKLSEINKLLAHRPWLITKEHIQALLKTGEHTWSLAELIQALVLLTHCHSLSSFVFGCGILPEGDADGSPAPQAPTPPSEQSSPPSRDPLNNSGGFESARDVEALMERMQQLQESLLRDEGTSQEEMESRFELEKSESLLVTPSADILEPSPHPDMLCFVEDPTFGYEDFTRRGAQAPPTFRAQDYTWEDHGYSLIQRLYPEGGQLLDEKFQAAYSLTYNTIAMHSGVDTSVLRRAIWNYIHCVFGIRYDDYDYGEVNQLLERNLKVYIKTVACYPEKTTRRMYNLFWRHFRHSEKVHVNLLLLEARMQAALLYALRAITRYMT |
